Residue numbers refer to the chain shown, from its start.

To fix the notation:
B1: PRT-512 (protein)
chain: MITSVWTKGVTPPAKFTQGEDVFHAPYVANQGWYDITKAFDGGDDLLCGAATAGNMLHWWFDQNKEEIEAYLKKHPEKQKIMFGDQELLDVRKVINTKDSQTNSALFNYFKDKAFPNLSARRLGVMPDLVLDMFINGYYLNVYKTQTTDVNRTYQTKDRRGGIFDAVFTRGDQSKLLTERHDLKNKTLKEISDLIKQELTEGKALGLSHTYANVRINHVINLWGADFDSNGNLEAIYVTDSDSNASIGMKKYFVGVNSAGKVAISAKEIKEDNIGAQVLGLFTLSTGQDIWNQTNLEHHHHHH
B2: PRT-506 (protein)
chain: MITSVWTKGVTPPTDFIKGEDVFHAPYKAGQGWYDITKTFNGKDDLLCGAATAGNMLHWWFDQNKEEIEAYLKKHPEKQKIMFGDQELLDVRKVINTKDSQTNSALFNYFKDKAFPNLSARRLGVMPDLVLDMFINGYYLNVYKTQTTDVNRTYQTKDRRGGIFDAVFTRGDQSKLLTERHDFKEKTLKEISDLIKQELTEGKALGLSHTYANVRINHVINLWGADFDSNGNLEAIYVTDSDSNASIGMKKYFVGVNSAGKVAISAKEIKEDNIGAQVLGLFTLSTGQDIWNQTNLEHHHHHH
B3: PRT-446 (protein)
chain: MVTSVWTKGVTPPTDFIKGEDVFHAPYKAGQGWYDITKTFNGKDDLLCGAATAGNMLHWWFDQNKDQIEAYLKEHPEKQKINFNGEQMFDVKEAIDTKDDQTNSKLFEYFKEKAFPYLSTKHLGVFPDHVLDMFINGYRLSLTNHGPTPVKEGSKDPRGGIFDAVFTRGDQSKLLTSRHDFKEKTLKEISDLIKQELTEGKALALSHTYANVRINHVINLWGADFDSNGNLEAIYVTDSDSNASIGMKKYFVGVNSAGKVAISAKEIEDDNIGAQVLGLFTLSTGQDIWNQTNLEHHHHHH
B4: PRT-458 (protein)
chain: B3 chain with A70R, D100S, N103D, A204G, N228E, E232K, E268K, D269E
B5: PRT-374 (protein)
chain: MSQTEDSESLQRLRDIEDFQAEKKKQNVVYTKWLDGVDVKDHDFRKIVDGNEAYYATPLLNGRGFYDINKDFNRDNDKCAAAVAANMFHYWLDRNRDNVDRFLRQNPEKHGIIELPDGQLKLSDFLNTYESDDGYRDKSKLFDFISENFNGPVWTDKLLDNYINGYAYNYKYGRTIEDSTKNTSKINFFKEVFNEKILTNNHSIRNQNELSVLLSEALYTGKAIGLSYGPAGLRHSLGHIISVWGADLDADGNVVAIYVTDSDDKKLTIGDERVGLKRYKISTDDEGRLRLTAYEETHNTGGQIRGLWTLDTGKQAWADYFDKTEQTGTDQAEQ
B6: PRT-357 (protein)
chain: B5 chain with K24E, E52S, F65W, N76S, E147N, S179P, L210F, I304V
B7: PRT-349 (protein)
chain: B5 chain with K25D, E52I, F65L, N76S, R94I, D133H, S179P, G287N, I304V, Q315Y
B8: PRT-372 (protein)
chain: B5 chain with E52S, Y170S, L210F, S215I, S236G
B9: PRT-365 (protein)
chain: B5 chain with N76S, T175L, S179P, L233T
B10: PRT-502 (protein)
chain: MITSVWTKGVTPPTDFIKGEDVFHAPYKAGQGWYDITKAFDGGDDLLCGAATAGNMLHWWFDQNKEYIEAYLKKHPEKQKIMFGDQELLDVRKAINTKGSQKNSELFNYFRDKAFPNLSARRLGVMPDLVLDMFINGYYLNVTKTQTTDVNRQEQEKDKRGGIFDAVFGRGDQTKLLTSRHDFKEKGLNEISQLIKQELTEGKALGLSHTYANVRINHVINLWGADFDADGNLEAIYVTDSDSNASIGMKKYFVGVNSAGKVAISAKEIKEDNIGAQVLGLFTLSTGQKIWNKTNLEHHHHHH
B11: PRT-491 (protein)
chain: MVTSVWTKGVTPPTDFIYGEDVLHAPYKAGQGWYDITKTFNGKDNLLCGAATAGNMLHWWFDQNKEQIENYLKKHPEKQKIIFNNQELFDLKAAIDTKDSQLDSKLFEYFKEKAFPYLSTKHLGVFPDHVIDMFINGYRLSLTNHGPTPVKRGSKDKRGGIFDAVFTRGVQSKLLTNRHDLKNKTLKEISDLIKQELTEGKALGISHTYANVRINHVINLWGADFDAEGNLEAIYVTDSDTNASIGMKKYFVGVNSNGKVAISAKEIEEDNIGAQVLGLFTLSTGQDIWNQTNLEHHHHHH
B12: PRT-480 (protein)
chain: MITSVWTKGVTPPTDFIYGEDVLHAPYKAGQGWYDITKAFDGGDDLLCGAATAGNMLHWWFDQNKEQIENYLKKHPEKQKINFNGEQMFDVKEAIDTKDSQTNSELFNYFKEKAFPYLSTKHLGVFPDHVIDMFINGYRLSLTNHGPTPVKRGSKDPRGGIFDAVFTRGDQSKLLTNRHDLKNKTLNEISQLIKQELTEGKALGISHTYANVRINHVINLWGADFDAEGNLEAIYVTDSDSNASIGMKKYFVGVNSNGKVAISAKEIEEDNIGAQVLGLFTLSTGQDIWNQTNLEHHHHHH
B13: PRT-341 (protein)
chain: MTITSVWTKGVTPPTPEDFRENNEDVLHAPYLANQGWYDITKAFDGKDNLLCGAATAGNMLHWWFDQNKEEIERYLKKHPEKQKIIFNNQEWFDVKAAIDTKDSQTNSKLFNYFRDKAFPNLSARQLGVMPDLVLDMFINGYYLNLPKTQSTDVNRPYQDKDKRGGIFDAVFTRGDQTTLLTARHDLKNKGLNEISDLIKQELTEGKALALSHTYANVSINHVINLWGADFDAEGNLEAIYVTDSDANASIGMKKYAVGVNAHGKVAISAKKIEGDNIGAQVLGLFTLSTGQDIWQKLS
B14: PRT-456 (protein)
chain: MITSVWTKGVTPPTDFIKGEDVFHAPYKAGQGWYDITKAFDGGDDLLCGAATAGNMLHWWFDQNKDQIEAYLKEHPEKQKINFNGEQMFDVKEAIDTKDDQTNSELFNYFKEKAFPYLSTKHLGVFPDHVLDMFINGYRLSLTNHGPTPVKEGSKDPRGGIFDAVFTRGDQSKLLTSRHDLKNKTLNEISQLIKQELTEGKALALSHTYANVRINHVINLWGADFDAEGNLEAIYVTDSDSNASIGMKKYFVGVNSAGKVAISAKEIEDDNIGAQVLGLFTLSTGQDIWNQTNLEHHHHHH
B15: PRT-468 (protein)
chain: B14 chain with A70R, D100S, A204G, E268K, D269E

For the data set, the target named is pooled human IgG (human IgG1,2,3 and 4).
With B1, the Enzyme Activity Endpoint Assay: Fab′2 came out at 884 ng/µL, the Enzyme Activity Endpoint Assay: Fc was 372 ng/µL, the Enzyme Activity Endpoint Assay: IgG was 31 ng/µL and the Enzyme Activity Endpoint Assay: scIgG stood at 0 ng/µL.

With B2, the Enzyme Activity Endpoint Assay: Fab′2 amounted to 1120 ng/µL, the Enzyme Activity Endpoint Assay: Fc amounted to 453 ng/µL, the Enzyme Activity Endpoint Assay: IgG was found to be 43 ng/µL and the Enzyme Activity Endpoint Assay: scIgG turned out to be 0 ng/µL.

Protein B3 gave an Enzyme Activity Endpoint Assay: Fab′2 of 1130 ng/µL, an Enzyme Activity Endpoint Assay: Fc of 427 ng/µL, an Enzyme Activity Endpoint Assay: IgG of 0 ng/µL and an Enzyme Activity Endpoint Assay: scIgG of 0 ng/µL.

B4 yielded an Enzyme Activity Endpoint Assay: Fab′2 of 598 ng/µL, an Enzyme Activity Endpoint Assay: Fc of 224 ng/µL, an Enzyme Activity Endpoint Assay: IgG of 112 ng/µL and an Enzyme Activity Endpoint Assay: scIgG of 226 ng/µL.

In the case of B5, the Enzyme Activity Endpoint Assay (purified): Fab′2 was found to be 985 ng/µL, the Enzyme Activity Endpoint Assay (purified): Fc is 536 ng/µL, the Enzyme Activity Endpoint Assay (purified): IgG turned out to be 0 ng/µL and the Enzyme Activity Endpoint Assay (purified): scIgG amounted to 379 ng/µL.

In the case of B6, the Enzyme Activity Endpoint Assay (purified): Fab′2 amounted to 724 ng/µL, the Enzyme Activity Endpoint Assay (purified): Fc came out at 389 ng/µL, the Enzyme Activity Endpoint Assay (purified): IgG was 0 ng/µL and the Enzyme Activity Endpoint Assay (purified): scIgG is 313 ng/µL.

B7 showed an Enzyme Activity Endpoint Assay (purified): Fab′2 of 677 ng/µL, an Enzyme Activity Endpoint Assay (purified): Fc of 215 ng/µL, an Enzyme Activity Endpoint Assay (purified): IgG of 0 ng/µL and an Enzyme Activity Endpoint Assay (purified): scIgG of 286 ng/µL.

For the protein B8, the Enzyme Activity Endpoint Assay: Fab′2 came to 0 ng/µL, the Enzyme Activity Endpoint Assay: Fc was 218 ng/µL, the Enzyme Activity Endpoint Assay: IgG is 122 ng/µL and the Enzyme Activity Endpoint Assay: scIgG was 560 ng/µL.

B9 registered an Enzyme Activity Endpoint Assay (purified): Fab′2 of 735 ng/µL, an Enzyme Activity Endpoint Assay (purified): Fc of 385 ng/µL, an Enzyme Activity Endpoint Assay (purified): IgG of 0 ng/µL and an Enzyme Activity Endpoint Assay (purified): scIgG of 312 ng/µL.

Protein B10 came in with an Enzyme Activity Endpoint Assay: Fab′2 of 307 ng/µL, an Enzyme Activity Endpoint Assay: Fc of 283 ng/µL, an Enzyme Activity Endpoint Assay: IgG of 66 ng/µL and an Enzyme Activity Endpoint Assay: scIgG of 296 ng/µL.

Protein B11 had an Enzyme Activity Endpoint Assay: Fab′2 of 769 ng/µL, an Enzyme Activity Endpoint Assay: Fc of 260 ng/µL, an Enzyme Activity Endpoint Assay: IgG of 140 ng/µL and an Enzyme Activity Endpoint Assay: scIgG of 331 ng/µL.

In the case of B12, the Enzyme Activity Endpoint Assay: Fab′2 was 846 ng/µL, the Enzyme Activity Endpoint Assay: Fc was 325 ng/µL, the Enzyme Activity Endpoint Assay: IgG came out at 0 ng/µL and the Enzyme Activity Endpoint Assay: scIgG came out at 0 ng/µL.

In the case of B13, the Enzyme Activity Endpoint Assay (purified): Fab′2 was found to be 832 ng/µL, the Enzyme Activity Endpoint Assay (purified): Fc turned out to be 199 ng/µL, the Enzyme Activity Endpoint Assay (purified): IgG came to 0 ng/µL and the Enzyme Activity Endpoint Assay (purified): scIgG came out at 318 ng/µL.

Protein B14 gave an Enzyme Activity Endpoint Assay: Fab′2 of 1170 ng/µL, an Enzyme Activity Endpoint Assay: Fc of 497 ng/µL, an Enzyme Activity Endpoint Assay: IgG of 0 ng/µL and an Enzyme Activity Endpoint Assay: scIgG of 0 ng/µL.

Turning to B15, the Enzyme Activity Endpoint Assay: Fab′2 came out at 957 ng/µL, the Enzyme Activity Endpoint Assay: Fc was found to be 385 ng/µL, the Enzyme Activity Endpoint Assay: IgG is 115 ng/µL and the Enzyme Activity Endpoint Assay: scIgG worked out at 66 ng/µL.

(Values after patent US20250027068.)
